Results published in patent US12180519B2, “Cocaine esterase mutant and use thereof” (Hangzhou Normal University, priority 2021, dated 2024).
Numbering of substitutions follows the chain as printed. Names and notes keep the numbering of the source.

B1: T172R/G173Q/L196C/I301C/V116K/A51V: cocaine esterase mutant of SEQ ID No. 1 with the named mutations (protein, UniProt Q9L9D7 1-574, looked up, variant T172R G173Q L196C I301C V116K A51V)
Cocaine esterase: MVDGNYSVASNVMVPMRDGVRLAVDLYRPDADGPVPVLLVRNPYDKFDVFVWSTQSTNWLEFVRDGYAVVIQDTRGLFASEGEFVPHVDDEADAEDTLSWILEQAWCDGNVGMFGKSYLGVTQWQAAVSGVGGLKAIAPSMASADLYRAPWYGPGGALSVEALLGWSALIGRQLITSRSDARPEDAADFVQLAAICNDVAGAASVTPLAEQPLLGRLIPWVIDQVVDHPDNDESWQSISLFERLGGLATPALITAGWYDGFVGESLRTFVAVKDNADARLVVGPWSHSNLTGRNADRKFGCAATYPIQEATTMHKAFFDRHLRGETDALAGVPKVRLFVMGIDEWRDETDWPLPDTAYTPFYLGGSGAANTSTGGGTLSTSISGTESADTYLYDPADPVPSLGGTLLFHNGDNGPADQRPIHDRDDVLCYSTEVLTDPVEVTGTVSARLFVSSSAVDTDFTAKLVDVFPDGRAIALCDGIVRMRYRETLVNPTLIEAGEIYEVAIDMLATSNVFLPGHRIMVQVSSSNFPKYDRNSNTGGVIAREQLEEMCTAVNRIHRGPEHPSHIVLPIIKR
B2: T172R/G173Q/L196C/I301C/V116K/A51L: cocaine esterase mutant of SEQ ID No. 1 with the named mutations (protein, UniProt Q9L9D7 1-574, looked up, variant T172R G173Q L196C I301C V116K A51L)
Cocaine esterase: B1 Cocaine esterase with V51L
B3: V116K: cocaine esterase mutant, 116th valine mutated into lysine (protein, listed as Rhodococcus sp.)
chain: B1 Cocaine esterase with V51A
B4: Wildtype WT: wildtype bacterial cocaine esterase, amino acid sequence SEQ ID No. 1 (protein, listed as Rhodococcus sp.)
chain: B1 Cocaine esterase with V51A, K116V
B5: T172R/G173Q/L196C/I301C/V116K/A51Y: cocaine esterase mutant of SEQ ID No. 1 with the named mutations (protein, UniProt Q9L9D7 1-574, looked up, variant T172R G173Q L196C I301C V116K A51Y)
Cocaine esterase: B1 Cocaine esterase with V51Y
B6: T172R/G173Q/L196C/I301C/V116K/A51W: cocaine esterase mutant of SEQ ID No. 1 with the named mutations (protein, UniProt Q9L9D7 1-574, looked up, variant T172R G173Q L196C I301C V116K A51W)
Cocaine esterase: B1 Cocaine esterase with V51W
B7: T172R/G173Q/V116K: cocaine esterase mutant of SEQ ID No. 1 with the named mutations (protein, UniProt Q9L9D7 1-574, looked up, variant T172R G173Q V116K)
Cocaine esterase: B1 Cocaine esterase with V51A, C196L, C301I
B8: T172R/G173Q: CocE T172R/G173Q mutant that completed the clinical test II phase of cocaine detoxification (protein, listed as Rhodococcus sp.)
chain: B1 Cocaine esterase with V51A, K116V
B9: T172R/G173Q/L196C/I301C/V116K: cocaine esterase mutant of SEQ ID No. 1 with the named mutations (protein, UniProt Q9L9D7 1-574, looked up, variant T172R G173Q L196C I301C V116K)
Cocaine esterase: B1 Cocaine esterase with V51A
B10: T172R/G173Q/L196C/I301C/V116K/A51F: cocaine esterase mutant of SEQ ID No. 1 with the named mutations (protein, UniProt Q9L9D7 1-574, looked up, variant T172R G173Q L196C I301C V116K A51F)
Cocaine esterase: B1 Cocaine esterase with V51F
B11: T172R/G173Q/L196C/I301C: cocaine esterase mutant with the named mutations, comparator without V116K (protein, listed as Rhodococcus sp.)
chain: B1 Cocaine esterase with V51A, K116V

Experiment: High-activity CocE mutant accelerated BZE metabolism in vivo (rat blood BZE and BA by HPLC)
Design: species or system SD rats
Conditions: 0.2 or 1 mg/kg mutant i.v., then 2 mg/kg BZE i.v.; FIGS. 3A and 3B
Description: Experimental male SD rats (200 g/rat) purchased from Laboratory Animal Center of Zhejiang Academy of Medical Sciences were raised in a constant-temperature and constant-humidity environment. The feeding and experimental application was carried out by following Guide for the Care and Use of Laboratory Animals.
Blood was collected from the femoral vein of rats using a blood collection needle and a heparin-treated capillary. Firstly, eight tubes of blood from the same rat, 75 μL in each tube, were added to 100 μL of 250 μM paraxon to inhibit the effect of endogenous metabolizing enzymes on BZE, and frozen at −80° C. After thawing, 19.7 μL of mixed solution containing 0, 4, 10, 20, 40, 60, 100 and 200 μM BA and BE standards, then subjected to vortex for 20 seconds, and then added with 150 μL of acetonitrile and subjected to vortex for 1 minutes, then added with 50 μL of 10% HClO4 and subjected to vortex for 1 minutes, centrifuged at 17,000 rcf for 15 minutes, and then centrifuged again after the supernatant was transferred. 250 μL of supernatant were taken out for HPLC analysis. The sample volume was 100 μL, and the HPLC experimental conditions were the same as those in Embodiment 3. The concentrations of BZE and BA in the final standard samples were 0, 0.2, 0.5, 1, 2, 3, 5 and 10 μM respectively.
There were 5 rats in each group. Firstly, 0.2 or 1 mg/kg of high-active CocE mutant or normal saline was injected into the tail vein of rats, and 2 mg/kg BZE was injected into the tail vein within 1 minute. After BZE injection, 75 μL of blood samples were taken at the 0th, 2nd, 5th, 10th, 30th, 60th, 90th and 120th minutes respectively, and 100 μL of 250 μM paraxon were added in each sample, and then frozen at −80° C. After thawing, the samples were subjected to vortex for 20 seconds, then added with 150 μL of acetonitrile and subjected to vortex for 1 minute, then added with 50 μL of 10% HClO4 and subjected to vortex for 1 minute, centrifuged at 17,000 g for 15 minutes, and then centrifuged again after the supernatant was transferred. 250 μL of supernatant were taken out for HPLC analysis. The sample volume was 100 μL. The BA and BZE concentrations in the blood of rats in each group at different time points were calculated according to the blood sample standard curve of the standards, so as to obtain the metabolism of BZE with or without the high-activity CocE mutant.

Q: With B1 as the molecule, how does the “BZE metabolism in rats (in words)” value read?
A: accelerating BZE metabolism

Q: For B2, which “BZE metabolism in rats (in words)” value is on record?
A: accelerating BZE metabolism

Same assay, conditions: rats, 2 mg/kg BZE i.v. without mutant, second minute

Q: What does the source list for `CN1[C@H]2CC[C@@H]1[C@@H](C(=O)O)[C@@H](OC(=O)c1ccccc1)C2` [BZE, benzoylecgonine, reference compound]?
A: BA concentration in the blood: less than 0.5 μM; BZA concentration in the blood: 15.8 µM

Experiment: Enzyme activity analysis: in vitro catalytic reaction of CocE enzymes to substrate BZE (HPLC, Michaelis-Menten)
Type: biochemical
Conditions: not given
Source text: Firstly, an experimental method for detecting a substrate BZE and a product benzoic acid BA by HPLC was established. Both BZE and BA had strong ultraviolet absorption at 230 nm. In HPLC analysis, acetonitrile and 0.1% formic acid were used as mobile phases to separate BZE and BA by C18 liquid chromatography column. The absorption of BZE and BA at wavelength 230 nm was detected by an ultraviolet detector, and linear standard curves of BZE and BA were obtained. The activity of BZE reaction catalyzed by CocE was determined, and the reaction temperature was 25° C., with three repetitions in each group. An enzymatic reaction was started by 50 μL of substrate BZE solution with 50 μL of enzyme solution (diluted with 0.1 M phosphate buffer (pH 7.4)).
50 μL of 10% perchloric acid was added to stop the reaction, and then, 50 μL of acetonitrile was added, and the mixture was centrifuged at 12,000 rpm for 5 minutes. Then, the supernatant was diluted to an appropriate multiple and injected into […]. The peak time, peak areas and curves of BZE and BA were compared, and the residual BZE concentration and the BA concentration in the reaction sample were calculated. The kcat and KM of each mutant could be obtained by calculating the reaction rates of BA catalyzed by enzyme at different substrate concentrations, drawing a kinetic curve of the enzyme reaction with GraphPad Prism 8, and performing Michaelis-Menten kinetic analysis.

Q: With B3 as the molecule, how does the “catalytic efficiency on benzoylecgonine compared with the wildtype enzyme (in words)” value read?
A: greatly improved

Same assay, conditions: substrate BZE

Q: With B4 as the molecule, how does the “RCE, ratio of catalytic efficiency of the mutant enzyme to BZE and that of the wildtype enzyme” value (“RCE, ratio” below) read?
A: 1.0

Q: For B5, which “RCE, ratio” value is on record?
A: 357.4

Q: With B6 as the molecule, how does the “RCE, ratio” value read?
A: 132.5

Q: With B7 as the molecule, how does the “RCE, ratio” value read?
A: 110.8

Q: Which “RCE, ratio” value does the source give for B8 here?
A: 1.6

Q: Which “RCE, ratio” value does the source give for B9 here?
A: 210.3

Q: Which “RCE, ratio” value does the source give for B3 here?
A: 61.2

Q: Which “RCE, ratio” value does the source give for B10 here?
A: 211.8

Q: Which “RCE, ratio” value does the source give for B1 here?
A: 137.6

Q: For B11, which “RCE, ratio” value is on record?
A: 2.6

Q: For B2, which “RCE, ratio” value is on record?
A: 536.5

Same assay, conditions: substrate BZE, 25° C., 0.1 M phosphate buffer pH 7.4

Q: With B4 as the molecule, how does the Km read?
A: 5150 µM

Q: What about the kcat of the same molecule?
A: 301.2 min⁻¹

Q: With B5 as the molecule, how does the Km read?
A: 43.6 µM

Q: And the kcat?
A: 910.6 min⁻¹

Q: What does the source list for B6?
A: Km: 95.6 µM; kcat: 740.7 min⁻¹

Q: With B7 as the molecule, how does the Km read?
A: 65.6 µM

Q: And the kcat?
A: 425.2 min⁻¹

Q: Which results are given for B8?
A: Km: 4360 µM; kcat: 418.7 min⁻¹

Q: Which results are given for B9?
A: Km: 46.3 µM; kcat: 568.6 min⁻¹

Q: For B3, which Km is on record?
A: 89.6 µM

Q: What about the kcat of the same molecule?
A: 320.4 min⁻¹

Q: Which results are given for B10?
A: Km: 59.3 µM; kcat: 733.9 min⁻¹

Q: What does the source list for B1?
A: Km: 86.2 µM; kcat: 693.2 min⁻¹

Q: Which Km does the source give for B11 here?
A: 3710 µM

Q: What about the kcat of the same molecule?
A: 556.7 min⁻¹

Q: With B2 as the molecule, how does the Km read?
A: 27.8 µM

Q: And the kcat?
A: 873 min⁻¹

Experiment: not given
Conditions: in vivo; cited from earlier work

Q: With `COC(=O)[C@H]1[C@@H](OC(=O)c2ccccc2)C[C@@H]2CC[C@H]1N2C` [cocaine] as the molecule, how does the “share of cocaine bio-converted by BChE and CE-2 to ecgonine methyl ester (EME)” value read?
A: about 40%

Q: And the “share of cocaine hydrolyzed by CE-1 in liver to benzoyllecgonine (BZE)” value?
A: 45%
